Changes are numbered by the printed parent chain.
B1: g28-D78-1_CLK09 (antibody, V domains shown)
VH: QVQLVQSGAEVKKPGASVKVSCKTSGYTFTAYYVHWVRQAPGQGLEWMGWINPTNGATNYAQIFQGRVTMTRDTSISTAYMELNRLRSDDTAVYYCARVGGLWAFDIWGQGTIVTVSS
VL: DIQMTQSPSSLSASVGDRVTITCQTSQHITRNLNWYQQKPGKAPKLLISDAYNLKIGVPSRFSGSGSGTDFTFTISSLQPEDVATYYCQQYEFFGGGTEVEIK
B2: g28-D78-10_CLK09 (antibody, V domains shown)
VH: QLQLVQSGADVKKPGASVKVSCKASGYTFTGYFIHWVRQAPGQGLEWMGWLNPIYGGVNYARNFQGRVTMTRDTSISTAYLELRRLKSDDTAVYYCARVAERMIFDVWGQGTMVTVSS
VL: DIQMTQSPSSLSASVGDRVTIACQASQDINNYVNWYQQKPGKAPKLLIYDASNLETGVPSRFSGSGSGTDFTFTISSLQPEDIATYYCQQYEFFGGGTKVEIK
B3: g28-D78-11_CLK09 (antibody, V domains shown)
VH: B2 VH with G66D
VL: B2 VL with A25S, D28G
B4: g28-D78-12_CLK09 (antibody, V domains shown)
VH: B2 VH with A9T, D10E, R84K, T91A
VL: B2 VL
B5: g28-D78-13_CLK09 (antibody, V domains shown)
VH: B2 VH with D10E, R84K
VL: B2 VL
B6: g28-D78-14_CLK09 (antibody, V domains shown)
VH: QVQLVQSGAEVKKPGASVRVSCKASGYTFTGNYIHWVRQAPGQGLEWMGWLNPINGGTNHAQKFQGRVTMTRDTSISTAYMELSRLRSDDTTVYYCARVGGLWFGKGWTFDIWGQGTMVTVSS
VL: DIQMTQSPSSLSASVGDRVTITCQASQDISILNWYQQKPGKAPKLLIYGASNLETGVPSRFSGSGSGTDFTLTISSLQPEDIATYYCQQYEFFGGGTKVAIK
B7: g28-D78-15_CLK09 (antibody, V domains shown)
VH: B2 VH with K13T, G31S, G57A, G66D
VL: B2 VL
B8: g28-D78-16_CLK09 (antibody, V domains shown)
VH: QVQLVQSGAEVKKPGASVKVSCKASGYTFTGYHIHWVRQAPGQGLEWMGWVNPYHGGTNYAQIFQGRVTMTRDTSISTAYMELSRLRSDDTAVYYCALWFGEKKTFDIWGQGTMVTVSS
VL: B2 VL with A22T, D28G, N30S, Y32F, V33L, Y36F, A51V
B9: g28-D78-17_CLK09 (antibody, V domains shown)
VH: B6 VH with F104L
VL: B6 VL with L72F, A100E
B10: g28-D78-18_CLK09 (antibody, V domains shown)
VH: B8 VH with G31D
VL: B2 VL with A22T, D28G, N30S, Y32F, V33L, Y36F, A51V
B11: g28-D78-19_CLK09 (antibody, V domains shown)
VH: B1 VH
VL: B1 VL with T25A
B12: g28-D78-2_CLK09 (antibody, V domains shown)
VH: B2 VH with D10E, R84K
VL: B2 VL with G66R, E101R
B13: g28-D78-20_CLK09 (antibody, V domains shown)
VH: B2 VH with D10E, G66D
VL: B2 VL
B14: g28-D78-21_CLK09 (antibody, V domains shown)
VH: QLQESGAEVKKPGASVRVSCKASGYTFTGNYIHWVRQAPGQGLEWMGWVNPINGGTNHAQKFQGRVTMTRDTSISTAYMELSRLRSDDTTVYYCARVGGLWFGKGWTFDIWGQGTMVTVSS
VL: B6 VL with L72F, A100R
B15: g28-D78-3_CLK09 (antibody, V domains shown)
VH: B2 VH with D10E, V37I, R84K
VL: B2 VL with E101R
B16: g28-D78-4_CLK09 (antibody, V domains shown)
VH: B2 VH with D10E, V37I, R84K
VL: B2 VL
B17: g28-D78-5_CLK09 (antibody, V domains shown)
VH: B2 VH with D10E, G66D
VL: B2 VL with N30S
B18: g28-D78-6_CLK09 (antibody, V domains shown)
VH: B2 VH with G66D
VL: B2 VL with A22V, G66R
B19: g28-D78-7_CLK09 (antibody, V domains shown)
VH: B6 VH with S77N, R87K, F104S
VL: B6 VL with L72F, A100E
B20: g28-D78-8_CLK09 (antibody, V domains shown)
VH: B2 VH with D10E, G26R, G66D
VL: B2 VL with N30S, E101R

The binders below were run against eOD-GT8 (monomeric ligand) (Human immunodeficiency virus 1, …).
Work on B1 yielded a Kd of 7.1 nM.
Work on B2 yielded a Kd of 11 nM.
B3 was tested, and the Kd was 9 nM.
B4 gave a Kd of 11 nM.
Work on B5 yielded a Kd of 11 nM.
B6 was tested, and the Kd was 0.29 nM.
B7 was tested, and the Kd was 160 nM.
B8 showed a Kd of 130 nM.
B9 gave a Kd of 0.25 nM.
Binder B10 has a Kd of 82 nM.
With B11 the Kd was 8.8 nM.
With B12 the Kd was 15 nM.
For B13, the Kd was 6.8 nM.
In the case of B14, the Kd is reported as 0.87 nM.
B15 gave a Kd of 7.1 nM.
B16 was tested, and the Kd was 6.5 nM.
B17 was tested, and the Kd was 6 nM.
Work on B18 yielded a Kd of 7.6 nM.
B19 gave a Kd of 0.2 nM.
Binder B20 has a Kd of 8 nM.

Reference: paper PMC11488661 (Science immunology, 2024)
